US20180155451A1 (published 2018)

T1: FcγRIIb, extracellular domain with C-terminal His tag (human, UniProt P31994 43-217)
T1 construct: extracellular domain; soluble receptor used as Biacore analyte; also called 2b; FcgRIIb
T1 sequence (looked up): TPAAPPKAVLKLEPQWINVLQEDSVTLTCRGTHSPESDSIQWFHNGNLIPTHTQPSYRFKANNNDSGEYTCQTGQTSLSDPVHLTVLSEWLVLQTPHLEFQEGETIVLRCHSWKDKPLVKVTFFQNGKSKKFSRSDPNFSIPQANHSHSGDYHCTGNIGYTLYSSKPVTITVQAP

T2: FcγRIIa R (FcγRIIa, allotype R, Arg at position 131), extracellular domain with C-terminal His tag (human, UniProt P12318 34-217)
T2 construct: extracellular domain; soluble receptor used as Biacore analyte; also called 2aR; FcgRIIa R
T2 sequence (looked up): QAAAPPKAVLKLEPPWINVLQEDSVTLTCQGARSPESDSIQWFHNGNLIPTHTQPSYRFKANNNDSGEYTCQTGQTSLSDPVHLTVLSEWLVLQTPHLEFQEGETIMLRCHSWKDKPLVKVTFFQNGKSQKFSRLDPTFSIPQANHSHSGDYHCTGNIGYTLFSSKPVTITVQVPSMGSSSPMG


Key:
[1] = biological target: T1, FcγRIIb, extracellular domain with …; assay: Biacore SPR; binding relative to GpH7-A5/GpH7-B3/GpL16-k0 (=100)
Protocol: (§1) The heterodimerized antibodies He Abs in which one of the H chains was introduced with an alteration were assayed for their binding activities to each activating FcγR and inhibitory FcγR according to the method described in Example 4. […] The activating FcγRs in FIGS. 26, 27, 28, and 29 are FcγRIa, FcγRIIa (R), FcγRIIa (H), and FcγRIIIa, respectively.
(§2) Analysis of interaction between objective antibody and the FcγR was carried out using Biacore T100 (GE Healthcare). HBS-EP+ (GE Healthcare) was used as the running buffer, and the measurement temperature was set to 25° C. Chips produced by immobilizing the antigen peptide by the amine coupling method to a Series S Sencor Chip CM5 (GE Healthcare), or alternatively, chips produced by allowing preliminarily biotinylated antigen peptides to interact with and immobilize onto a Series S Sensor Chip SA (certified) (GE Healthcare) were used. Antibodies of interest were captured onto an antigen peptide-immobilized chip, and allowed to interact to each FcγR diluted with running buffer. To regenerate and repeatedly use the chip, the antibodies captured on the chip were washed off by reacting 10 mM glycine-HCl, pH 1.5.

[2] = biological target: T2, FcγRIIa R (FcγRIIa, allotype R, Arg at …); assay: as above
Protocol: as §1, §2

[3] = biological target: T2, FcγRIIa R (FcγRIIa, allotype R, Arg at …); assay: Biacore SPR; He/Con_2aR divided by He/Con_2b (FcγRIIb)
Protocol: as §1, §2

Binder	He/Con_2b (IIb binding) [1]	He/Con_2aR (IIaR binding) [2]	IIaR/IIb (He_2aR/2b) [3]
heterodimerized antibody GpH7-A5/GpH7-B3 variant H268_09D/GpL16-k0 (antibody, human IgG1, kappa, He Ab: anti-glypican-3 IgG1, alteration in one H chain only; also called He Ab) heavy 1: not shown heavy 2: not shown light: DIVMTQSPLSLPVTPGEPASISCQASESLVHSNRNTYLHWYLQKPGQSPQLLIYKVSNRFSGVPDRFSGSGSGTDFTLKISRVEAEDVGVYYCSQNTHVPPTFGQGTKVEIERTVAAPSVFIFPPSDEQLKSGTASVVCLLNNFYPREAKVQWKVDNALQSGNSQESVTEQDSKDSTYSLSSTLTLSKADYEKHKVYACEVTHQGLSSPVTKSFNRGEC	239 % of control	149 % of control	0.62
heterodimerized antibody GpH7-A5/GpH7-B3 variant K326_10E/GpL16-k0 (antibody, human IgG1, kappa, He Ab: anti-glypican-3 IgG1, alteration in one H chain only; also called He Ab) heavy 1: not shown heavy 2: not shown light: DIVMTQSPLSLPVTPGEPASISCQASESLVHSNRNTYLHWYLQKPGQSPQLLIYKVSNRFSGVPDRFSGSGSGTDFTLKISRVEAEDVGVYYCSQNTHVPPTFGQGTKVEIERTVAAPSVFIFPPSDEQLKSGTASVVCLLNNFYPREAKVQWKVDNALQSGNSQESVTEQDSKDSTYSLSSTLTLSKADYEKHKVYACEVTHQGLSSPVTKSFNRGEC	200 % of control	148 % of control	0.74
heterodimerized antibody GpH7-A5/GpH7-B3 variant N325_20W/GpL16-k0 (antibody, human IgG1, kappa, He Ab: anti-glypican-3 IgG1, alteration in one H chain only; also called He Ab) heavy 1: not shown heavy 2: not shown light: DIVMTQSPLSLPVTPGEPASISCQASESLVHSNRNTYLHWYLQKPGQSPQLLIYKVSNRFSGVPDRFSGSGSGTDFTLKISRVEAEDVGVYYCSQNTHVPPTFGQGTKVEIERTVAAPSVFIFPPSDEQLKSGTASVVCLLNNFYPREAKVQWKVDNALQSGNSQESVTEQDSKDSTYSLSSTLTLSKADYEKHKVYACEVTHQGLSSPVTKSFNRGEC	169 % of control	134 % of control	0.79
heterodimerized antibody GpH7-A5/GpH7-B3 variant N325_07I/GpL16-k0 (antibody, human IgG1, kappa, He Ab: anti-glypican-3 IgG1, alteration in one H chain only; also called He Ab) heavy 1: not shown heavy 2: not shown light: DIVMTQSPLSLPVTPGEPASISCQASESLVHSNRNTYLHWYLQKPGQSPQLLIYKVSNRFSGVPDRFSGSGSGTDFTLKISRVEAEDVGVYYCSQNTHVPPTFGQGTKVEIERTVAAPSVFIFPPSDEQLKSGTASVVCLLNNFYPREAKVQWKVDNALQSGNSQESVTEQDSKDSTYSLSSTLTLSKADYEKHKVYACEVTHQGLSSPVTKSFNRGEC	171 % of control	133 % of control	0.78
heterodimerized antibody GpH7-A5/GpH7-B3 variant L328_10E/GpL16-k0 (antibody, human IgG1, kappa, He Ab: anti-glypican-3 IgG1, alteration in one H chain only; also called He Ab) heavy 1: not shown heavy 2: not shown light: DIVMTQSPLSLPVTPGEPASISCQASESLVHSNRNTYLHWYLQKPGQSPQLLIYKVSNRFSGVPDRFSGSGSGTDFTLKISRVEAEDVGVYYCSQNTHVPPTFGQGTKVEIERTVAAPSVFIFPPSDEQLKSGTASVVCLLNNFYPREAKVQWKVDNALQSGNSQESVTEQDSKDSTYSLSSTLTLSKADYEKHKVYACEVTHQGLSSPVTKSFNRGEC	172 % of control	105 % of control	0.61
heterodimerized antibody GpH7-A5/GpH7-B3 variant L328_09D/GpL16-k0 (antibody, human IgG1, kappa, He Ab: anti-glypican-3 IgG1, alteration in one H chain only; also called He Ab) heavy 1: not shown heavy 2: not shown light: DIVMTQSPLSLPVTPGEPASISCQASESLVHSNRNTYLHWYLQKPGQSPQLLIYKVSNRFSGVPDRFSGSGSGTDFTLKISRVEAEDVGVYYCSQNTHVPPTFGQGTKVEIERTVAAPSVFIFPPSDEQLKSGTASVVCLLNNFYPREAKVQWKVDNALQSGNSQESVTEQDSKDSTYSLSSTLTLSKADYEKHKVYACEVTHQGLSSPVTKSFNRGEC	199 % of control	119 % of control	0.6
heterodimerized antibody GpH7-A5/GpH7-B3 variant K326_08L/GpL16-k0 (antibody, human IgG1, kappa, He Ab: anti-glypican-3 IgG1, alteration in one H chain only; also called He Ab) heavy 1: not shown heavy 2: not shown light: DIVMTQSPLSLPVTPGEPASISCQASESLVHSNRNTYLHWYLQKPGQSPQLLIYKVSNRFSGVPDRFSGSGSGTDFTLKISRVEAEDVGVYYCSQNTHVPPTFGQGTKVEIERTVAAPSVFIFPPSDEQLKSGTASVVCLLNNFYPREAKVQWKVDNALQSGNSQESVTEQDSKDSTYSLSSTLTLSKADYEKHKVYACEVTHQGLSSPVTKSFNRGEC	177 % of control	137 % of control	0.77
heterodimerized antibody GpH7-A5/GpH7-B3 variant K326_07I/GpL16-k0 (antibody, human IgG1, kappa, He Ab: anti-glypican-3 IgG1, alteration in one H chain only; also called He Ab) heavy 1: not shown heavy 2: not shown light: DIVMTQSPLSLPVTPGEPASISCQASESLVHSNRNTYLHWYLQKPGQSPQLLIYKVSNRFSGVPDRFSGSGSGTDFTLKISRVEAEDVGVYYCSQNTHVPPTFGQGTKVEIERTVAAPSVFIFPPSDEQLKSGTASVVCLLNNFYPREAKVQWKVDNALQSGNSQESVTEQDSKDSTYSLSSTLTLSKADYEKHKVYACEVTHQGLSSPVTKSFNRGEC	199 % of control	147 % of control	0.74
heterodimerized antibody GpH7-A5/GpH7-B3 variant H268_10E/GpL16-k0 (antibody, human IgG1, kappa, He Ab: anti-glypican-3 IgG1, alteration in one H chain only; also called He Ab) heavy 1: not shown heavy 2: not shown light: DIVMTQSPLSLPVTPGEPASISCQASESLVHSNRNTYLHWYLQKPGQSPQLLIYKVSNRFSGVPDRFSGSGSGTDFTLKISRVEAEDVGVYYCSQNTHVPPTFGQGTKVEIERTVAAPSVFIFPPSDEQLKSGTASVVCLLNNFYPREAKVQWKVDNALQSGNSQESVTEQDSKDSTYSLSSTLTLSKADYEKHKVYACEVTHQGLSSPVTKSFNRGEC	230 % of control	148 % of control	0.64
heterodimerized antibody GpH7-A5/GpH7-B3 variant K326_09D/GpL16-k0 (antibody, human IgG1, kappa, He Ab: anti-glypican-3 IgG1, alteration in one H chain only; also called He Ab) heavy 1: not shown heavy 2: not shown light: DIVMTQSPLSLPVTPGEPASISCQASESLVHSNRNTYLHWYLQKPGQSPQLLIYKVSNRFSGVPDRFSGSGSGTDFTLKISRVEAEDVGVYYCSQNTHVPPTFGQGTKVEIERTVAAPSVFIFPPSDEQLKSGTASVVCLLNNFYPREAKVQWKVDNALQSGNSQESVTEQDSKDSTYSLSSTLTLSKADYEKHKVYACEVTHQGLSSPVTKSFNRGEC	193 % of control	148 % of control	0.77
heterodimerized antibody GpH7-A5/GpH7-B3 variant H268_13S/GpL16-k0 (antibody, human IgG1, kappa, He Ab: anti-glypican-3 IgG1, alteration in one H chain only; also called He Ab) heavy 1: not shown heavy 2: not shown light: DIVMTQSPLSLPVTPGEPASISCQASESLVHSNRNTYLHWYLQKPGQSPQLLIYKVSNRFSGVPDRFSGSGSGTDFTLKISRVEAEDVGVYYCSQNTHVPPTFGQGTKVEIERTVAAPSVFIFPPSDEQLKSGTASVVCLLNNFYPREAKVQWKVDNALQSGNSQESVTEQDSKDSTYSLSSTLTLSKADYEKHKVYACEVTHQGLSSPVTKSFNRGEC	160 % of control	127 % of control	0.8
heterodimerized antibody GpH7-A5/GpH7-B3 variant N325_08L/GpL16-k0 (antibody, human IgG1, kappa, He Ab: anti-glypican-3 IgG1, alteration in one H chain only; also called He Ab) heavy 1: not shown heavy 2: not shown light: DIVMTQSPLSLPVTPGEPASISCQASESLVHSNRNTYLHWYLQKPGQSPQLLIYKVSNRFSGVPDRFSGSGSGTDFTLKISRVEAEDVGVYYCSQNTHVPPTFGQGTKVEIERTVAAPSVFIFPPSDEQLKSGTASVVCLLNNFYPREAKVQWKVDNALQSGNSQESVTEQDSKDSTYSLSSTLTLSKADYEKHKVYACEVTHQGLSSPVTKSFNRGEC	197 % of control	144 % of control	0.73
heterodimerized antibody GpH7-A5/GpH7-B3 variant L328_07I/GpL16-k0 (antibody, human IgG1, kappa, He Ab: anti-glypican-3 IgG1, alteration in one H chain only; also called He Ab) heavy 1: not shown heavy 2: not shown light: DIVMTQSPLSLPVTPGEPASISCQASESLVHSNRNTYLHWYLQKPGQSPQLLIYKVSNRFSGVPDRFSGSGSGTDFTLKISRVEAEDVGVYYCSQNTHVPPTFGQGTKVEIERTVAAPSVFIFPPSDEQLKSGTASVVCLLNNFYPREAKVQWKVDNALQSGNSQESVTEQDSKDSTYSLSSTLTLSKADYEKHKVYACEVTHQGLSSPVTKSFNRGEC	160 % of control	124 % of control	0.78
heterodimerized antibody GpH7-A5/GpH7-B3 variant P238_04F/GpL16-k0 (antibody, human IgG1, kappa, He Ab: anti-glypican-3 IgG1, alteration in one H chain only; also called He Ab) heavy 1: not shown heavy 2: not shown light: DIVMTQSPLSLPVTPGEPASISCQASESLVHSNRNTYLHWYLQKPGQSPQLLIYKVSNRFSGVPDRFSGSGSGTDFTLKISRVEAEDVGVYYCSQNTHVPPTFGQGTKVEIERTVAAPSVFIFPPSDEQLKSGTASVVCLLNNFYPREAKVQWKVDNALQSGNSQESVTEQDSKDSTYSLSSTLTLSKADYEKHKVYACEVTHQGLSSPVTKSFNRGEC	312 % of control	174 % of control	0.56
heterodimerized antibody GpH7-A5/GpH7-B3 variant N325_06M/GpL16-k0 (antibody, human IgG1, kappa, He Ab: anti-glypican-3 IgG1, alteration in one H chain only; also called He Ab) heavy 1: not shown heavy 2: not shown light: DIVMTQSPLSLPVTPGEPASISCQASESLVHSNRNTYLHWYLQKPGQSPQLLIYKVSNRFSGVPDRFSGSGSGTDFTLKISRVEAEDVGVYYCSQNTHVPPTFGQGTKVEIERTVAAPSVFIFPPSDEQLKSGTASVVCLLNNFYPREAKVQWKVDNALQSGNSQESVTEQDSKDSTYSLSSTLTLSKADYEKHKVYACEVTHQGLSSPVTKSFNRGEC	217 % of control	152 % of control	0.7
heterodimerized antibody GpH7-A5/GpH7-B3 variant L328_04F/GpL16-k0 (antibody, human IgG1, kappa, He Ab: anti-glypican-3 IgG1, alteration in one H chain only; also called He Ab) heavy 1: not shown heavy 2: not shown light: DIVMTQSPLSLPVTPGEPASISCQASESLVHSNRNTYLHWYLQKPGQSPQLLIYKVSNRFSGVPDRFSGSGSGTDFTLKISRVEAEDVGVYYCSQNTHVPPTFGQGTKVEIERTVAAPSVFIFPPSDEQLKSGTASVVCLLNNFYPREAKVQWKVDNALQSGNSQESVTEQDSKDSTYSLSSTLTLSKADYEKHKVYACEVTHQGLSSPVTKSFNRGEC	219 % of control	138 % of control	0.63
